As a reminder, the Kd is the constant that tells how readily two partners part at equilibrium. The low end stands for tighter binding, the high end for weaker binding.

The source of these data is patent US20240424120A1.

In test [1] the target is Human Nectin-4 (human) (UniProt Q96NY8). Put plainly: SPR (Biacore 8K), Nectin-4 amine-coupled on CM5 chip, compound as analyte, multi-cycle kinetics, 1:1 model; average of two tests. (In general: SPR reads the build-up and loss of mass on a sensor chip optically.)
Chain of Human Nectin-4 (human) (Q96NY8 32-349 limits assumed): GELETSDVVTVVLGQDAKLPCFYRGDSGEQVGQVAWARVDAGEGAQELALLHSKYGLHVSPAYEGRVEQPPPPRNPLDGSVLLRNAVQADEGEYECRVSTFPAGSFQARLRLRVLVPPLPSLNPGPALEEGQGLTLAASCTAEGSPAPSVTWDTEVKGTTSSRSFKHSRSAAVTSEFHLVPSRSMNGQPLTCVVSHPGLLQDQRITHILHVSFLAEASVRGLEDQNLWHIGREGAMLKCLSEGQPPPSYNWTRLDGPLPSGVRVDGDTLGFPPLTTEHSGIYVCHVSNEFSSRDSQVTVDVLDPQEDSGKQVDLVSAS
Test [2] shares this target. Put plainly: SPR (Biacore 8K), Nectin-4 amine-coupled on CM5 chip, compound as analyte, multi-cycle kinetics, 1:1 model.

Starred links: 1 amine or outer side, 2 acyl side, 3 side chain; linkers in the order of their positions; H or OH if unused. Positions of bridges follow the written chain, without caps; N, C: chain ends. Non-standard residues stand in square brackets, D forms with d. No end group written: not given here. TATA = O=C(CC[*:1])N1CN(C(=O)CC[*:2])CN(C(=O)CC[*:3])C1; 1Nal = N[C@@H](Cc1cccc2ccccc12)C(=O)O; Hyp = O=C(O)[C@@H]1C[C@@H](O)CN1; hArg = N=C(N)NCCCC[C@H](N)C(=O)O; Pen = CC(C)(S)[C@H](N)C(=O)O; hCys = N[C@@H](CCS)C(=O)O; βAla = NCCC(=O)O; Sar = CNCC(=O)O

B1: Acetate salt of PDC_2 (peptide)
peptide: [βAla][Sar][Sar][Sar][Sar][Sar][Sar][Sar][Sar][Sar][Sar]K[Sar]DCP[1Nal][dD][Pen]M[hArg]DWSTP[Hyp]WC-NH2
modifications: lactam 12-14; linker 15-19-29 via TATA; also: drug-linker INT_1 coupled, site not given here, acetate salt
The molecule B1 displayed a Kd with Human Nectin-4 (human) [1] of 0.43 nM.

B2: Acetate salt of PDC_3 (peptide)
peptide: [βAla][Sar][Sar][Sar][Sar][Sar][Sar][Sar][Sar][Sar][Sar]K[Sar]DCP[1Nal][dD][Pen]M[hArg]DWSTP[Hyp]W[hCys]
modifications: not fully specified (C-terminus); cysteine pairing not given here; also: further groups not given here, drug-linker INT_1 coupled, site not given here, acetate salt
As for B2, the Kd in the test with Human Nectin-4 (human) [2] was 4.13 nM.

B3: Acetate salt of PDC_1 (peptide)
peptide: [βAla][Sar][Sar][Sar][Sar][Sar][Sar][Sar][Sar][Sar][Sar]K[hArg]DCP[1Nal][dD][Pen]M[hArg]DWSTP[Hyp]WC-NH2
modifications: lactam 12-14; linker 15-19-29 via TATA; also: drug-linker INT_1 coupled, site not given here, acetate salt
B3: in the test with Human Nectin-4 (human) [2], the Kd amounted to 1.4 nM.
